{"source": "paper PMC3974617", "about": "(Developmental cell, 2013)", "proteins": {"B1": {"name": "full-length recombinant human VPS41 (His-hVPS41) (natural protein, UniProt P49754 1-854, looked up)", "chain": "MAEAEEQETGSLEESTDESEEEESEEEPKLKYERLSNGVTEILQKDAASCMTVHDKFLALGTHYGKVYLLDVQGNITQKFDVSPVKINQISLDESGEHMGVCSEDGKVQVFGLYSGEEFHETFDCPIKIIAVHPHFVRSSCKQFVTGGKKLLLFERSWMNRWKSAVLHEGEGNIRSVKWRGHLIAWANNMGVKIFDIISKQRITNVPRDDISLRPDMYPCSLCWKDNVTLIIGWGTSVKVCSVKERHASEMRDLPSRYVEIVSQFETEFYISGLAPLCDQLVVLSYVKEISEKTEREYCARPRLDIIQPLSETCEEISSDALTVRGFQENECRDYHLEYSEGESLFYIVSPRDVVVAKERDQDDHIDWLLEKKKYEEALMAAEISQKNIKRHKILDIGLAYINHLVERGDYDIAARKCQKILGKNAALWEYEVYKFKEIGQLKAISPYLPRGDPVLKPLIYEMILHEFLESDYEGFATLIREWPGDLYNNSVIVQAVRDHLKKDSQNKTLLKTLAELYTYDKNYGNALEIYLTLRHKDVFQLIHKHNLFSSIKDKIVLLMDFDSEKAVDMLLDNEDKISIKKVVEELEDRPELQHVYLHKLFKRDHHKGQRYHEKQISLYAEYDRPNLLPFLRDSTHCPLEKALEICQQRNFVEETVYLLSRMGNSRSALKMIMEELHDVDKAIEFAKEQDDGELWEDLILYSIDKPPFITGLLNNIGTHVDPILLIHRIKEGMEIPNLRDSLVKILQDYNLQILLREGCKKILVADSLSLLKKMHRTQMKGVLVDEENICESCLSPILPSDAAKPFSVVVFHCRHMFHKECLPMPSMNSAAQFCNICSAKNRGPGSAILEMKK"}}, "molecular_target": "the molecule itself", "experiment": "negative-stain EM", "data": [{"protein": "B1", "values": [{"measurement": "stoichiometry N", "result": 2}]}]}
